Source: publication PMC4706430, “In Vitro Mode of Action and Anti-thrombotic Activity of Boophilin, a Multifunctional Kunitz Protease Inhibitor from the Midgut of a Tick Vector of Babesiosis, Rhipicephalus microplus” (PLoS Neglected Tropical Diseases, 2016)

Assays:
FXIa [1] = target: T1, FXIa (human, UniProt P03951 19-387; P03951 388-625); assay: enzyme inhibition kinetics (chromogenic substrate hydrolysis); Lineweaver-Burk plots and re-plot of the slope against Boophilin concentration; Boophilin (0-1280 nM) with S2238 or S2366 (125-750 μM), then thrombin (0.2 nM) or FXIa (0.5 nM); TBS-BSA pH 7.4; conditions: both partners purified
T1 construct: coagulation factor XIa heavy chain; coagulation factor XIa light (catalytic) chain; for the Enzyme Research Laboratories FXIa no species is printed; also called Factor XIa; source: bought: Enzyme Research Laboratories (reagents list); bought: Molecular Innovations (protease screen); copies: 2 + 2

α-thrombin [2] = target: T2, α-thrombin (human, UniProt P00734 364-622); assay: as above; conditions: both partners purified
FXIa [3] = target: T1, FXIa; assay: enzyme inhibition kinetics (chromogenic substrate hydrolysis); apparent Ki from Vs/Vo against Boophilin concentration (0-640 nM); FXIa (10 nM) pre-incubated 1 hour with Boophilin, then S2366 (250 μM); TBS-BSA pH 7.4; conditions: both partners purified
FXIa [4] = target: T1, FXIa; assay: SPR; Biacore T100; FXIa immobilised on CM5 by amine coupling (1280.4 RU); Boophilin (31.25-500 nM) injected 120 s, dissociation 600 s, 30 μL/minute, 25°C, HBS-P pH 7.4; global 1:1 Langmuir fit; conditions: both partners purified
kallikrein = kallikrein (human, UniProt P03952 20-638); assay: cell-based or functional assay
α-thrombin [5] = target: T2, α-thrombin; assay: cell-based or functional assay
α-thrombin [6] = target: T2, α-thrombin; assay: SPR; Biacore T100; Boophilin immobilised on CM5 by amine coupling (301.4 RU); thrombin (15.625-500 nM) injected 90 s, dissociation 180 s, 30 μL/minute, 25°C, HBS-P pH 7.4; global 1:1 Langmuir fit; α-thrombin, γ-thrombin and PPACK-thrombin also tested at 1 μM as analytes; conditions: both partners purified

T1 sequence (P03951 19-387, chain 1 of 2): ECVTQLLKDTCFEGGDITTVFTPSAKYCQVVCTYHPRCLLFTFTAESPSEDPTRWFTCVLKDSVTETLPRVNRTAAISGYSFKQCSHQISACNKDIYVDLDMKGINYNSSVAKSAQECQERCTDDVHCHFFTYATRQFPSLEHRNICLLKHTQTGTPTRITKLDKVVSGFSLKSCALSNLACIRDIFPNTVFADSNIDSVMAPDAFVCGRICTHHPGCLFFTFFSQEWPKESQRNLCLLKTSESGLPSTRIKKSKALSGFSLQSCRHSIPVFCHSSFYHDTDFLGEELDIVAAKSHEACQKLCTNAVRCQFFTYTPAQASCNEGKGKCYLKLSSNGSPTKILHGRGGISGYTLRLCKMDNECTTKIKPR
T1 sequence (P03951 388-625, chain 2 of 2): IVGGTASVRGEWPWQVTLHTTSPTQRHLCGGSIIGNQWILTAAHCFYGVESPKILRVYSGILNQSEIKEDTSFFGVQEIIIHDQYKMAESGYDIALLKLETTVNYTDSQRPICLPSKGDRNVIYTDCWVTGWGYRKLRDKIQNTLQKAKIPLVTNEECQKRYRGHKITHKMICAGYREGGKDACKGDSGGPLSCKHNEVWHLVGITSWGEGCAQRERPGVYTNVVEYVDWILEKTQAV
Chain of kallikrein (P03952 20-638): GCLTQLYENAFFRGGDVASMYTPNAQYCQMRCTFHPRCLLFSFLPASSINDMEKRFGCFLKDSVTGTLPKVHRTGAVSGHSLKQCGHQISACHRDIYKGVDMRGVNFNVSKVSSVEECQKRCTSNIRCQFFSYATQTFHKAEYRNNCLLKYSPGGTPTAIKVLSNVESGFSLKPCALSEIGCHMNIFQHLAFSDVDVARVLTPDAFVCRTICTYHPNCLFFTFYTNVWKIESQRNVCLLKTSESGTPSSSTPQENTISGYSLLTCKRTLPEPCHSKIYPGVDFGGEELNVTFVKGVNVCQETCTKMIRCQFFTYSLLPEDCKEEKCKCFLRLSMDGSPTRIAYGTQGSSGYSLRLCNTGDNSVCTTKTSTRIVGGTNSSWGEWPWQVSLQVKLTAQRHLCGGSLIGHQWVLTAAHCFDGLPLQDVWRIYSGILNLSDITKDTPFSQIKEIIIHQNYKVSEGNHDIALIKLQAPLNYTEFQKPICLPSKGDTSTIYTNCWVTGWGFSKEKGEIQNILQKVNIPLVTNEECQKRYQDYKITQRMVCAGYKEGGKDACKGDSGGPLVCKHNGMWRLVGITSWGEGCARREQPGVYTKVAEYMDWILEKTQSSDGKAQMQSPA

B1: Boophilin (natural protein)
chain: QRNGFCRLPADEGICKALIPRFYFNTETGKCTMFSYGGCGGNENNFETIEDCQKACGAPERVSDFEGADFKTGCEPAADSGSCAGQLERWFYNVRSGECETFVYGGCGGNDNNYESEEECELVCKNM
modifications: N-terminus blocked (Edman degradation)
- Ki (FXIa [1]): 115 nM
- Ki (α-thrombin [2]): 101 nM
- Ki (FXIa [3]): ~82 nM
- Kd (FXIa [4]): ~125 nM
- IC50 of the amidolytic activity of kallikrein (2 nM) on S2302, Boophilin 0-3200 nM, Vs/Vo (Fig 3G) (kallikrein): 919000 nM
- IC50 of residual amidolytic activity (S-2238) of clot-bound thrombin (Fig 2H) (α-thrombin [5]): ~1000 nM
- IC50 of thrombin-mediated fibrin formation (thrombin 200 nM, fibrinogen 2 mg/mL; absorbance at 600 nm) (Fig 2G) (α-thrombin [5]): ~1000 nM
- Kd (α-thrombin [6]): 116 nM
- koff (α-thrombin [6]): 0.36 s⁻¹
- kon (α-thrombin [6]): 3e+06 M⁻¹ s⁻¹
